The target in test [1] is GFP-Nrxn3α(25b+) (rat). Briefly: immunostaining of cells or tissue; co-culture (2 days) of HEK293 cells secreting myc-tagged C1ql2 or C1ql2.K262E with primary hippocampal neurons transfected with GFP-Nrxn3α(25b+); fixed, stained for myc and GFP; area of the masked HEK293 cell covered by GFP-Nrxn3α(25b+)-positive neuronal profiles; 25 cells per condition and experiment, N=3.

Test [2] concerns the target GFP-Nrxn3α(25b+) (rat).

From PMC10942602 come the findings set out here.

Chain of 6xHis-myc-tagged C1ql2 (Q8CFR0 22-287): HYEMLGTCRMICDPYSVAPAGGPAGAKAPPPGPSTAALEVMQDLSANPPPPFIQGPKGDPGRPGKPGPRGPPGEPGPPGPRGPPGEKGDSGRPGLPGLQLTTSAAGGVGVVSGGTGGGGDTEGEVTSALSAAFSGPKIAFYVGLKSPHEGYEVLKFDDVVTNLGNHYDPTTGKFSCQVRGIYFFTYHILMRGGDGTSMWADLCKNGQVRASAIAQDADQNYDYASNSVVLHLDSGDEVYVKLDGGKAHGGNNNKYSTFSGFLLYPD
Chain of GFP-Nrxn3α(25b+) (rat) (Q07310 28-1578): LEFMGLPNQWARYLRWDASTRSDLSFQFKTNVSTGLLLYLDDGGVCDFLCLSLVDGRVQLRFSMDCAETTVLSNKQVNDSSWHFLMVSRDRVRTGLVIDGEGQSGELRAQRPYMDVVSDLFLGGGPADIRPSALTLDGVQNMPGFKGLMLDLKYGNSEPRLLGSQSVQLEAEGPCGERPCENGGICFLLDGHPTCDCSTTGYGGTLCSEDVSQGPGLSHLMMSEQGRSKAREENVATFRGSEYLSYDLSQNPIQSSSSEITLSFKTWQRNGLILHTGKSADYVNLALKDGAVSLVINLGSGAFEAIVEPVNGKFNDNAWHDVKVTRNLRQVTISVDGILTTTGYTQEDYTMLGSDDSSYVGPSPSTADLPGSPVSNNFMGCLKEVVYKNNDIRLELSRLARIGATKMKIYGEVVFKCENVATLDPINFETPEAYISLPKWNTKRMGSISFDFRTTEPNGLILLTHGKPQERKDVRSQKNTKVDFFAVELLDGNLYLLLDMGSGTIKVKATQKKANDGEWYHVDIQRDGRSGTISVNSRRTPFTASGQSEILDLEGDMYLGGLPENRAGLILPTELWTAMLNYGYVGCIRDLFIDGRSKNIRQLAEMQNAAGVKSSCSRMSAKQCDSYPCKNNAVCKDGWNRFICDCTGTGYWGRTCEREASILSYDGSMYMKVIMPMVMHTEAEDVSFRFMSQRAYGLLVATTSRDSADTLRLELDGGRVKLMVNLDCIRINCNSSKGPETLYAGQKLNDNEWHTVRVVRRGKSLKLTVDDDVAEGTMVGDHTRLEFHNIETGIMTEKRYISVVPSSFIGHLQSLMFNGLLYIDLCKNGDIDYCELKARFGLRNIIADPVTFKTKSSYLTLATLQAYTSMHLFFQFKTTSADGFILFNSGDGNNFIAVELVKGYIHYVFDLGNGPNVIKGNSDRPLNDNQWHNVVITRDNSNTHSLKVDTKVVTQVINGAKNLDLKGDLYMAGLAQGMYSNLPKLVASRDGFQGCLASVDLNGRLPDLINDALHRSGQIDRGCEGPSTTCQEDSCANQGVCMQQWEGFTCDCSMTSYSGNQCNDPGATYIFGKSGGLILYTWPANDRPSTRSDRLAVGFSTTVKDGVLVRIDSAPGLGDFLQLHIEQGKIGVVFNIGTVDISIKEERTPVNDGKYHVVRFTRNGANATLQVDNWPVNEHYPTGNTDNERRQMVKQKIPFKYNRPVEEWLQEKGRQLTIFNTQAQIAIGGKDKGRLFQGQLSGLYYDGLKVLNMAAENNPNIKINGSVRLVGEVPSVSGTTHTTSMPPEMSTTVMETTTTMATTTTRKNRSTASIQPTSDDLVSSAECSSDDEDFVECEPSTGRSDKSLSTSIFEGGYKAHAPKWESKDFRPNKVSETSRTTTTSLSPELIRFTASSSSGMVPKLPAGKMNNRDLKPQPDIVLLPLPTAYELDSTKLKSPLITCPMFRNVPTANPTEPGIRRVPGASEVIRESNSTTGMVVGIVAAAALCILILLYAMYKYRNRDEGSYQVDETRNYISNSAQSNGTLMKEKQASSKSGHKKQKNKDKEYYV

In the test with GFP-Nrxn3α(25b+) (rat) [1], “6xHis-myc-tagged C1ql2 (from UniProt Q8CFR0 22-287) (natural protein)” returned a surface area of HEK293 cells covered by GFP-Nrxn3α(25b+)-positive neuronal profiles of 40.

For “6xHis-myc-tagged C1ql2.K262E (from UniProt Q8CFR0 22-287) (natural protein)”, the vGlut1 accumulation in GFP-Nrxn3α(25b+)-expressing neurons contacting HEK293 cells expressing C1ql2.K262E (area of the HEK293 cell covered by vGlut1) with GFP-Nrxn3α(25b+) (rat) [2] was found to be 16.9.
